Measurements reported in patent US20250051465A1 (published 2025).

T1: full length human LEPR on cells (human, UniProt P48357 22-1165)
T1 sequence: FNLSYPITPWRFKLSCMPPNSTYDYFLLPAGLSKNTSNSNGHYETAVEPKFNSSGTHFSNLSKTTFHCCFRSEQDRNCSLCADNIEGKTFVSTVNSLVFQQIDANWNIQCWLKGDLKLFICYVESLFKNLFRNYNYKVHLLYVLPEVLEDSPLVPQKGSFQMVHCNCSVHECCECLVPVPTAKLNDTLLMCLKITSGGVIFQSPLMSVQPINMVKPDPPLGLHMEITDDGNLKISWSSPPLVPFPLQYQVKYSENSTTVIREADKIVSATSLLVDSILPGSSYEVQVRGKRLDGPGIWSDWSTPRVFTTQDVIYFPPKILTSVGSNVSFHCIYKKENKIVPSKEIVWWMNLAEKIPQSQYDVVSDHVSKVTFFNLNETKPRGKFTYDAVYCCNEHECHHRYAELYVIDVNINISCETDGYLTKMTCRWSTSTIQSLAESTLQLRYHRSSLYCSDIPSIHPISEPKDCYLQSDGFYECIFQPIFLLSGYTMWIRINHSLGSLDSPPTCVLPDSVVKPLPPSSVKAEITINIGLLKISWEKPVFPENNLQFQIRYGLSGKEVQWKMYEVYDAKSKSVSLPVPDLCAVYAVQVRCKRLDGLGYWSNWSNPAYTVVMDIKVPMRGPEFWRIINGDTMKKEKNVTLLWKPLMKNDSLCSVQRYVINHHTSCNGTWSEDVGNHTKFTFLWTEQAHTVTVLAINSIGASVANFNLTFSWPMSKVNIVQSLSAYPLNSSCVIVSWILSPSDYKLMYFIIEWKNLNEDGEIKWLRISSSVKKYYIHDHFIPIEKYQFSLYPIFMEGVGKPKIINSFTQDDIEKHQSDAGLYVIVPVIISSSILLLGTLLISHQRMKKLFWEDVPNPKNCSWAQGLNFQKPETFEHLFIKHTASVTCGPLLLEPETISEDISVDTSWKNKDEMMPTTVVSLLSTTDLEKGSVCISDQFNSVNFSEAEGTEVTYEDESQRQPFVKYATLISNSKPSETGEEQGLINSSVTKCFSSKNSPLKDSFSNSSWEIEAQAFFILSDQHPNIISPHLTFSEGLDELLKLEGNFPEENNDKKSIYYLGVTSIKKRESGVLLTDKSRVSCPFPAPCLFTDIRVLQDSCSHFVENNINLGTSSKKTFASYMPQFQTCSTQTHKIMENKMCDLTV

B1: H4H18445P2 (antibody, human IgG4, V domains shown)
VH: QVQLQESGPGLVKPSQTLSLTCTVSGGSISSGGDYWSWIRQLPGKGLEWIGYIYYSGSAYYNPSLKSRGTISIDTSKNQFSLKLTSVTAADTAVYFCVKLRFLEWFLGGWFGPWGQGTLVTVSS
VL: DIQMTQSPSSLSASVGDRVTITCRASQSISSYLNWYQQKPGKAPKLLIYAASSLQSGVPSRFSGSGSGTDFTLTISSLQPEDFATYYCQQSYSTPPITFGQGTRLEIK
notes: Fully human antibody with human IgG4 Fc (H4H prefix)
B2: H4H18438P2 (antibody, human IgG4, V domains shown)
VH: QVQLVESGGGVVQPGRSLRLSCAASGFSFNTYGMHWVRQAPGKGLEWVTIIWYDGSIKYYADSVKGRFTISRDNSKNTLYLQMNSLRAEDTAVYYCARGGYSGYLYFDYWGQGTLVTVSS
VL: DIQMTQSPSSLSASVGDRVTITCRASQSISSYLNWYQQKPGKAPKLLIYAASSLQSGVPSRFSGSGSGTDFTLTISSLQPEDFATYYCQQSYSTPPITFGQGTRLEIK
notes: as for B1
B3: H4H18417P2 (antibody, human IgG4, V domains shown)
VH: QVQLVESGGGVVQPGRSLRLSCAASGFTFSTYGMHWVRQAPGKGLEWVSVISYDESNKYYADSVKGRFTISRDNSKNALYLQMNSLRNEDTAVYYCARDRPFGLVTGWFDPWGQGTLVTVSS
VL: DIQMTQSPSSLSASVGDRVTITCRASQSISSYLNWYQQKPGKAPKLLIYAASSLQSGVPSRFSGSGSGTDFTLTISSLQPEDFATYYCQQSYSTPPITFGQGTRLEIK
notes: as for B1
B4: H4H18449P2 (antibody, human IgG4, V domains shown)
VH: EVQLVESGGGLVQPGGSLRLSCVASGFTFNKYDMHWVRQTTGKGLEWVSGIDTDGDTYYPGSVKGRFTISRENAENSLYLQMNGLRVGDTAVYYCARWPWSGFYGAFDIWGQGTMVTVSS
VL: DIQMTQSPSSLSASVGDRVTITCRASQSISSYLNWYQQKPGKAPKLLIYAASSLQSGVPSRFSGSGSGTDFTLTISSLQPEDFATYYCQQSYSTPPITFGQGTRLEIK
notes: as for B1
B5: H4H16650P2 (antibody, human IgG4, V domains shown)
VH: QVQLVESGGGVVQPGKSLRLSCVASGFTFSSDAMYWVRQAPGKGLEWVAVIYYDGNYQYYEDSVKGRFTISRDNSQNTLDLQMNSLRVDDTAVYFCARLNWDYWYLDLWGRGTLVTVSS
VL: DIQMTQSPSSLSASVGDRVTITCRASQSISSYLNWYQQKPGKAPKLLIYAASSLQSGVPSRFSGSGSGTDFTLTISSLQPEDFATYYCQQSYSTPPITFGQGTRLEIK
notes: as for B1

The binders below were run against T2, human LEPR extracellular domain expressed with a C-terminal myc-myc-hexahistidine tag (hLEPR.mmh) (human, UniProt P48357 22-839) (assay: SPR, captured mAb, 25C).
T2 construct: also called human LEPR-MMH; monomeric human LEPR
Method: (§1) Equilibrium dissociation constants (KD values) for LEPR binding to purified anti-LEPR monoclonal antibodies were determined using a real-time surface plasmon resonance biosensor using a Biacore 4000 instrument. All binding studies were performed in 10 mM HEPES, 150 mM NaCl, 3 mM EDTA, and 0.05% v/v Surfactant Tween-20, pH 7.4 (HBS-ET) running buffer at 25° C. and 37° C. The Biacore sensor surface was first derivatized by amine coupling with a monoclonal mouse anti-human Fc antibody (GE, #BR-1008-39) to capture anti-LEPR monoclonal antibodies. […] Kinetic association (kₐ) and dissociation (kd) rate constants were determined by fitting the real-time binding sensorgrams to a 1:1 binding model with mass transport limitation using Scrubber 2.0c curve-fitting software. Binding dissociation equilibrium constants (KD) and dissociative half-lives (t½) were calculated from the kinetic rate constants as: […]

| 100 nM hLEPR-MMH Bound (RU) | Kd [nM] | koff [s⁻¹] | kon [M⁻¹ s⁻¹] | t½ [min] | Binder |
| --- | --- | --- | --- | --- | --- |
| 45 | 108 | 0.00478 | 44200 | 2.4 | B1 |
| 22 | 75.4 | 0.00226 | 30000 | 5.1 | B2 |
| 28 | 129 | 0.0079 | 61400 | 1.5 | B3 |
| 54 | 8.08 | 0.000235 | 29100 | 49 | B4 |
| 51 | 7.93 | 0.000223 | 28100 | 52 | B5 |

The binders below were run against T3, Macaca fascicularis LEPR extracellular domain expressed with a C-terminal myc-myc-hexahistidine tag … (Macaca fascicularis, UniProt Q9MYL0 22-837 (rhesus entry)) (assay: SPR, captured mAb, 25C).
T3 construct: also called mfLEP.MMH
Method: as §1

| 100 nM mfLEP.MMH Bound (RU) | Kd [nM] | koff [s⁻¹] | kon [M⁻¹ s⁻¹] | t½ [min] | Binder |
| --- | --- | --- | --- | --- | --- |
| 58 | 82.4 | 0.00486 | 59000 | 2.4 | B1 |
| 33 | 139 | 0.0123 | 88300 | 0.9 | B3 |
| 93 | 2.27 | 0.000137 | 60200 | 84 | B5 |

What follows are binders tested against T1, full length human LEPR on cells (assay: cell-based or functional assay).

| % activation, with 200 pM human Leptin [%] | % activation, without human Leptin [%] | EC50, STAT3-Luc reporter, with 200 pM human Leptin [M] | EC50, STAT3-Luc reporter, without human Leptin [nM] | Binder |
| --- | --- | --- | --- | --- |
| 97 | 5 | 4.1e-10 | 11.9 | B1 |
| 76 | 5 | 2.02e-11 | 1.49 | B2 |
| 87 | 5 | 5.23e-10 | 0.153 | B3 |
| 66 | 13 | 5.23e-11 | 0.212 | B4 |
| 88 | 68 | 5.19e-11 | 0.0619 | B5 |

Each binder was assayed against T2, human LEPR extracellular domain … (assay: Luminex, myc-captured full length extracellular domain).
Method: Aliquots of microspheres with immobilized anti-myc monoclonal antibodies, prepared as described above, were added individually to 1 mL of the each of these protein supernatants. The microspheres were gently mixed, incubated for two hours at 25° C., washed twice with 1 mL of DBPS, centrifuged to remove the supernatant and finally resuspended in 1 mL of DPBS buffer. Forty-eight μL of anti-myc IgG coupled microspheres from individual reactions with full length human LEPR and with each of the human LEPR domain proteins were withdrawn and mixed together in 3.6 mL of PBS+20 mg/mL BSA+0.05% sodium azide (blocking buffer).
From this mixed pool, 75 μL of microspheres were plated per well on a 96 well filter plate (Millipore, Cat. No: MSBVN1250) and mixed with 25 μL of individual anti-human LEPR monoclonal antibodies (0.5 or 5 µg/mL), incubated for two hours at 25° C. and then washed twice with 200 μL of DPBS with 0.05% Tween 20 (washing buffer). […] After 30 minutes, the samples were washed twice with 200 μL of washing buffer and resuspended in 150 μL of wash buffer. The Median Fluorescence intensity (MFI) of the microspheres was measured in a Luminex Analyzer.

| MFI [MFI] | Binder |
| --- | --- |
| 6570 | B1 |
| 6250 | B2 |
| 4890 | B3 |
| 7980 | B4 |
| 7600 | B5 |

What follows are binders tested against T4, extracellular domain portion of LEPR protein expressed with a C-terminal human Fc tag (hLEPR.hFc) (human) (assay: blocking ELISA: 10 nM hLEPR.hFc to coated hLeptin, 500 nM Ab).
T4 construct: also called dimeric human LEPR
Method: These antibody-protein or protein-protein complexes were then incubated for 1.5 hour at room temperature (RT). […] Samples were developed with a TMB solution (BD Biosciences, #555214; substrate A and B mixed at 1:1 ratio as per manufacturer's instructions) to produce a colorimetric reaction and then neutralized with 1M sulfuric acid before measuring absorbance at 450 nm on a Victor X5 plate reader.
Data analysis was performed using a sigmoidal dose-response model within Prism™ software (GraphPad). […] In the calculation, binding signal of 10 nM of hLEPR.hFc without the presence of the antibody was referenced as 100% binding or 0% blocking; and the baseline signal of buffer alone without the presence of hLEPR.hFc was referenced as 0% binding or 100% blocking.

| % blockade [%] | Binder |
| --- | --- |
| 28 | B1 |
| 15 | B2 |
| 16 | B3 |
| 8 | B4 |
| -7 | B5 |
